{"source": "patent US20100143379A1", "about": "(priority 2005, published 2010)", "key": {"CCR5": {"tested_on": "CCR5", "assay": "Cell surface receptor expression in monocyte-derived macrophages (FACS)", "type": "cell-based", "details": "50 ng/ml with PMB 10 μg/ml, 48 h", "procedure": "(§1) Cell surface expression of CCR5 and CXCR4 was analyzed by FACS after staining with FITC-conjugated anti-CCR5 and PE-conjugated anti-CXCR4 antibodies (Pharmingen). Results (percent of receptor-positive cells) are shown as mean±SE for three performed experiments.\n(§2) Cell surface expression of CCR5 and CXCR4 was analyzed by FACS after staining with FITC-conjugated anti-CCR5 and PE-conjugated anti-CXCR4 antibodies (Pharmingen) (FIG. 9)."}, "CXCR4": {"tested_on": "CXCR4", "assay": "Cell surface receptor expression in monocyte-derived macrophages (FACS)", "type": "cell-based", "details": "50 ng/ml with PMB 10 μg/ml, 48 h", "procedure": "as §1, §2"}, "HIV-1ADA": {"tested_on": "HIV-1ADA", "assay": "HIV-1 replication in monocyte-derived macrophage cultures (RT activity)", "type": "cell-based", "details": "recombinant MIF 50 ng/ml", "procedure": "(§3) Triplicate cultures of monocyte-derived macrophages were infected with HIV-1ADA in the presence of anti-MIF MAb (25 μg/ml) or isotype control. Virus replication was monitored by RT activity in culture supernatants. Results are presented as mean±SD. […] Control cultures were cultivated with PMB mixed with an isotype immunoglobulin with or without MIF.\nas §3, with “To investigate this possibility, HIV-infected macrophages were cultured in the presence of a neutralizing anti-MIF antibody or isotype control. Triplicate” for “Triplicate”, “supernatants.” for “supernatants. Results are presented as mean±SD.”"}, "JNK-1/2": {"tested_on": "JNK-1/2", "assay": "MAP kinase phosphorylation in differentiating K562 progenitors (Western blot)", "type": "cell-based, human", "details": "vs differentiation medium alone; did not reach statistical significance (96 hrs, p<0.06)", "procedure": "MIF addition markedly affected these differentiation-associated, MAP kinase responses.\nWestern Blot Analysis. Immunoblotting with antibodies directed against phospho-ERK1/2, total ERK1/2, phospho-JNK1/2, total JNK1/2, phospho-p38, and total p38 was performed according to the manufacturer's instructions (New England Biolabs, Beverly, Mass.). The secondary antibody was an anti-rabbit IgG conjugated to horseradish peroxidase and detection was by chemiluminescence according to the manufacture's instructions (Amersham Pharmacia Biotech, Piscataway, N.J.). For quantitation of signal intensity of phospho-specific kinase results, western blots were scanned using a UMAX, PowerLook IIII scanner and the images were analyzed using UN-SCAN-IT gel Automated Digitizing system software version 5.1 (Silk Scientific Corporation, USA). The ratio between phosphorylated to the total MAP kinase was determined and expressed as a fold-change for each lane (mean±S.E.M for three blots from independent cell cultures). The p values were calculated for each of the time course comparisons (4, 16, 96 hrs) of three different experiments (Student T-test, two-tailed)."}, "CD74": {"tested_on": "CD74", "assay": "CD74 phospho-serine sandwich ELISA", "type": "cell-based", "details": "MIF 100 ng/ml, 10 mins; COS-7/CD74+CD44 cell line and wild-type MEFs", "procedure": "(§4) FIGS. 12A-12E show the phosphoserine content of CD74 and CD44 measured by ELISA. […] The ELISA values represent the mean±SD of triplicate measurements. Experiments were replicated twice. *P<0.02 versus corresponding control (Student's T test, two-tailed). […] Cell lysates were prepared and probed for PKA and PKC using phospho-specific, and total anti-PKA and anti-PKC antibodies.\nThe observation that the phosphoserine content of CD74 increased only in cells that expressed CD74 and full-length CD44 is consistent with the notion that the MIF-mediated phosphorylation of CD74 is dependent on the activity of the CD44 intracytoplasmic domain.\nThe serine phosphorylation of CD74 and CD44 was quantified by specific sandwich ELISA (Perez et al. (2003). Nature Immunol 4:1083-92). […] After several washes (0.5% Tween-20 in PBS), 0.2 μg/ml anti-phospho-serine antibody (Hypromatrix) conjugated with horseradish peroxidase was added, and immunoreactivity measured by the TMB reagent (DakoCytomation) and the data analyzed with SpectraMax Plus (Molecular Devices).\n(§5) Cell lysates were collected and analyzed by immunoblots using a pair of anti-phospho-PICA and anti-(total)-PKA antibodies, a pair of anti-phospho-PKC (all from Cell Signaling) and anti-(total)-PKC (Santa Cruz) antibodies, or a pair of anti-phospho-p56^lck (Cell Signaling) and anti-(total) p56^lck (sc-433, Santa Cruz) antibodies."}, "ERK-1/2": {"tested_on": "ERK-1/2", "assay": "ERK-1/2 phosphorylation in COS-7/M6 stable transformants (Western blot)", "type": "cell-based", "details": "100 ng/ml"}, "X4 (LAI) strain of HIV-1": {"tested_on": "X4 (LAI) strain of HIV-1", "assay": "HIV-1 replication in PHA-activated PBMC cultures (RT activity)", "type": "cell-based", "details": "50 ng/ml; p>0.05", "procedure": "(§6) At indicated time points after infection, reverse transcriptase activity was measured in culture supernatants. Results are mean±SD. Whereas differences between MIF-treated and control cultures of ADA-infected PBMCs are highly statistically significant (p<0.01), differences between MIF-treated and control cultures of LAI-infected cells are not significant (p>0.05).\nas §6, with “supernatants.” for “supernatants. Results are mean±SD.”, “(p>0.05) (FIG. 8).” for “(p>0.05).”"}, "R5 (ADA) strain of HIV-1": {"tested_on": "R5 (ADA) strain of HIV-1", "assay": "HIV-1 replication in PHA-activated PBMC cultures (RT activity)", "type": "cell-based", "details": "50 ng/ml; p<0.01", "procedure": "as §6\nas §6, with “supernatants.” for “supernatants. Results are mean±SD.”, “(p>0.05) (FIG. 8).” for “(p>0.05).”"}, "PKA": {"tested_on": "PKA", "assay": "Western analysis of kinase phosphorylation in COS-7/CD74+CD44 cells", "type": "cell-based", "details": "100 ng/ml for 10 minutes", "procedure": "as §4, §5"}, "[1]": {"tested_on": "COS-7/CD74+CD44 cell line", "assay": "In vitro apoptosis, caspase-3 activity, COS-7 cell lines", "type": "cell-based", "details": "MIF 100 ng/ml; apoptosis inducers SNP and camptothecin, 24 hrs", "procedure": "Apoptosis Studies. […] Cell lysates were collected, and caspase-3 activity analyzed using a colorimetric assay kit (R&D Systems). Cytoplasmic p53 content was analyzed as described previously (Mitchell et al. (2002). Proc Natl Acad Sci USA 99:345-350) by immunoblotting of mouse cytosolic fractions using a pair of anti-phospho-p53 (Ser15) (R&D Systems) and total anti-p53 antibodies (Cell Signaling); and for COS-7 cells, the anti-p53 (Ser15) and total anti-p53 antibodies (Cell Signaling). In vivo apoptosis studies followed the procedures of (Mitchell et al. (2002). Proc Natl Acad Sci USA 99:345-350), and were conducted after i.p injection of 15 mg/kg lipopolysaccharide (E. coli 0111:B4; Sigma). Mice were sacrificed 24 hrs after priming and the peritoneal macrophage cells collected and immediately analyzed for apoptosis by an ELISA that detects cytoplasmic oligonucleosomes (Roche Diagnostics). Primary macrophages also were immunostained by Alexa 488-conjugated, Annexin V (Invitrogen), and apoptotic cells enumerated by fluorescence microscopy."}}, "data": [{"molecule": "MIF: macrophage migration inhibitory factor; recombinant mouse or human MIF purified essentially free of endotoxin (protein) PMFIVNTNVPRASVPDGFLSELTQQLAQATGKPPQYIAVHVVPDQLMAFGGSSEPCALCSLHSIGKIGGAQNRSYSKLLCGLLAERLRISPDRVYINYYDMNAANVGWNNSTFA", "values": [{"measurement": "CCR5 expression", "setting": "CCR5", "value": "substantially reduces CCR5 expression"}, {"measurement": "CXCR4 expression", "setting": "CXCR4", "value": "without altering expression of CXCR4"}, {"measurement": "HIV-1 replication (RT activity)", "setting": "HIV-1ADA", "value": "significantly suppressed replication"}, {"measurement": "JNK-1/2 phosphorylation", "setting": "JNK-1/2", "value": "appeared to upregulate JNK-1/2 phosphorylation"}, {"measurement": "phosphorylation of CD74 (phospho-serine content)", "setting": "CD74", "value": "increased significantly"}, {"measurement": "time of decay of ERK-1/2 phosphorylation", "setting": "ERK-1/2", "value": 30, "unit": "min"}, {"measurement": "ERK-1/2 phosphorylation", "setting": "ERK-1/2; cells transfected with CD74, CD44, CD74+CD44 or CD74+CD44^Δ67", "value": "induced ERK-1/2 phosphorylation only in those cells expressing both CD74 and full-length CD44"}, {"measurement": "X4 HIV-1 replication (RT activity)", "setting": "X4 (LAI) strain of HIV-1", "value": "did not reduce replication"}, {"measurement": "R5 HIV-1 replication (RT activity)", "setting": "R5 (ADA) strain of HIV-1", "value": "reduced R5 HIV-1 replication"}, {"measurement": "phosphorylation of PKA", "setting": "PKA", "value": "MIF-dependent phosphorylation of PKA"}, {"measurement": "protection from apoptosis", "setting": "[1]", "value": "significant protective effect"}]}]}
